Experimental data as given in patent US20240392262A1, “TRANSPOSASE AND USES THEREOF” (Poseida Therapeutics, Inc., published 2024).

T1: PAH4 Right TAL-PBx (synthetic construct)
T1 chain: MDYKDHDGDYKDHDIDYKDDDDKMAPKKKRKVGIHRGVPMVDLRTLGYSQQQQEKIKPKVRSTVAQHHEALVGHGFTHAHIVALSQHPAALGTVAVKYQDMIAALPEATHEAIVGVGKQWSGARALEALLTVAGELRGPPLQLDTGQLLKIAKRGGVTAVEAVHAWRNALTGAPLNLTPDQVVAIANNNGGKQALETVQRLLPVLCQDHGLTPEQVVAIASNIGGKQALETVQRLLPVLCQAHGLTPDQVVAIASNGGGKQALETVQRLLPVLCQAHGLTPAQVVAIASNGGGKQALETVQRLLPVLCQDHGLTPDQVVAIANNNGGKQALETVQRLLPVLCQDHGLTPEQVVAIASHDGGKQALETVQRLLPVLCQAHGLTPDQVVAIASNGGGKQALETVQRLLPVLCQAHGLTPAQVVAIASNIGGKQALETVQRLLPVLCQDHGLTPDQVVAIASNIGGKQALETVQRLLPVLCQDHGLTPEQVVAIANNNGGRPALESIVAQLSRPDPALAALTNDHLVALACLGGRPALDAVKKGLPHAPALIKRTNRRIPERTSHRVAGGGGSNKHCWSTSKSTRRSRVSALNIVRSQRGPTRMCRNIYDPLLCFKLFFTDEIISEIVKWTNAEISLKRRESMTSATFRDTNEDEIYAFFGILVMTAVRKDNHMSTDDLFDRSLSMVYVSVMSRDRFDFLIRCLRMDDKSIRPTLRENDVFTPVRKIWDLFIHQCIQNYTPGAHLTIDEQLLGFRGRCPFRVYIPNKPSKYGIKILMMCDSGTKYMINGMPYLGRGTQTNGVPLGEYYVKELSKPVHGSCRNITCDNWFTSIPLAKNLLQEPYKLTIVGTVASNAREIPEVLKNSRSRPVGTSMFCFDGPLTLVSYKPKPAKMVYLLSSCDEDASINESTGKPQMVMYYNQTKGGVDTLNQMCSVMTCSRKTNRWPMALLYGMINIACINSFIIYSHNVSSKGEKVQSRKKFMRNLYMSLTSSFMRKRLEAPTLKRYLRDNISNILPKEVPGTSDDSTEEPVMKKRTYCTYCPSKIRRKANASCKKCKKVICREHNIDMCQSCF

T2: PAH4 Left TAL-PBx (synthetic construct)
T2 chain: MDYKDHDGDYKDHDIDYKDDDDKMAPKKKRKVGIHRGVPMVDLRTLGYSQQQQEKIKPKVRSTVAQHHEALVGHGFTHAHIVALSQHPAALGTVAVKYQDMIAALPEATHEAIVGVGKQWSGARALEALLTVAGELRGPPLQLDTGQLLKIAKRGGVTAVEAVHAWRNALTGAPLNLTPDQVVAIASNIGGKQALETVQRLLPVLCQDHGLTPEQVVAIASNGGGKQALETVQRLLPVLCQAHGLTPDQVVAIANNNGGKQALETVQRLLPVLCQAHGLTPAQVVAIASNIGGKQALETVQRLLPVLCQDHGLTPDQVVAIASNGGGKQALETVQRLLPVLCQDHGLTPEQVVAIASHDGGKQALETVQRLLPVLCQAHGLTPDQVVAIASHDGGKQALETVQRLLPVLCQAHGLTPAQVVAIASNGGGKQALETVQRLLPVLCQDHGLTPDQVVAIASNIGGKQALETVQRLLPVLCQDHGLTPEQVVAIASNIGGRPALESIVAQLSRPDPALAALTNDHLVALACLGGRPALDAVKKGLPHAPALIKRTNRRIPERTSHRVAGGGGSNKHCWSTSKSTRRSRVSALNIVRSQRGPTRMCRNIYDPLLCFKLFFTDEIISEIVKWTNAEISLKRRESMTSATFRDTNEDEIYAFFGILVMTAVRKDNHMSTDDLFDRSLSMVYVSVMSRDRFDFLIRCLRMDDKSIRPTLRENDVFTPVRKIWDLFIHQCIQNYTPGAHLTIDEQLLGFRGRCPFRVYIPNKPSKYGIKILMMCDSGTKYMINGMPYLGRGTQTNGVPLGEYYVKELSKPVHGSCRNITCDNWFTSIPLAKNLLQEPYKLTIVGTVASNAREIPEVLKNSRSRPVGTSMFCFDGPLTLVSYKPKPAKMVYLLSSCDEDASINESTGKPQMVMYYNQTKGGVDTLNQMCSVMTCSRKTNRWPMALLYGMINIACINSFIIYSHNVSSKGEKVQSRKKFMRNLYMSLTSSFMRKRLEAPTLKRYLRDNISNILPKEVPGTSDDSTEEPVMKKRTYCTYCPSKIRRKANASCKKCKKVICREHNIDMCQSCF

T3: PAH5 Right TAL-PBx (synthetic construct)
T3 chain: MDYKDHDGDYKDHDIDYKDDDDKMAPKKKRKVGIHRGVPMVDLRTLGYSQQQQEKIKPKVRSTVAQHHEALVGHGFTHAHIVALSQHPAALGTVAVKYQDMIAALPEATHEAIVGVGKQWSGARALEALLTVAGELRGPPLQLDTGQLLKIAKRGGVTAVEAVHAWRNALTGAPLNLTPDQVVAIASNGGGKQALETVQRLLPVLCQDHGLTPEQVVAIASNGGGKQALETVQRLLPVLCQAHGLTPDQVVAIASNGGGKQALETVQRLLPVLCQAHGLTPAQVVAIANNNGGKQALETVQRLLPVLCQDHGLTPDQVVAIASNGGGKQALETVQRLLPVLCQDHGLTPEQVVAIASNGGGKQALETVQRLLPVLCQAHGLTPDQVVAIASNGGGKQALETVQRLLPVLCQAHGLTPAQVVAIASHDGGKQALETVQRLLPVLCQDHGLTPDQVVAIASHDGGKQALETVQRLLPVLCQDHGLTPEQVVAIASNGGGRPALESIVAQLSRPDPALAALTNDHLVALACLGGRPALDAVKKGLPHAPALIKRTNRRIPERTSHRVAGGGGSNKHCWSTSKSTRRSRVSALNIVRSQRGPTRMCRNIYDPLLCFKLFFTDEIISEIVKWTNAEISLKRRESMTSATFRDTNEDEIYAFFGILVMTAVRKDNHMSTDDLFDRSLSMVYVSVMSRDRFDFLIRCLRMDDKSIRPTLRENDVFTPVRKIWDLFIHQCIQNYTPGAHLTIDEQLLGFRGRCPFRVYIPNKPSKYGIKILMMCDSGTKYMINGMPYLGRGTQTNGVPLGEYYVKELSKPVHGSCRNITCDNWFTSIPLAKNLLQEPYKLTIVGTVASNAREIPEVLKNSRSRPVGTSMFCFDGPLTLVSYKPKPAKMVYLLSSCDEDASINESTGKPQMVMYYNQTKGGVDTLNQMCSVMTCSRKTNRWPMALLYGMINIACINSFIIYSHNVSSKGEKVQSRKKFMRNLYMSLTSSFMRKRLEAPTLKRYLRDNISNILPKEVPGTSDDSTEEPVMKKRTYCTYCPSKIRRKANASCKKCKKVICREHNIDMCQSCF

T4: PAH5 Left TAL-PBx (synthetic construct)
T4 chain: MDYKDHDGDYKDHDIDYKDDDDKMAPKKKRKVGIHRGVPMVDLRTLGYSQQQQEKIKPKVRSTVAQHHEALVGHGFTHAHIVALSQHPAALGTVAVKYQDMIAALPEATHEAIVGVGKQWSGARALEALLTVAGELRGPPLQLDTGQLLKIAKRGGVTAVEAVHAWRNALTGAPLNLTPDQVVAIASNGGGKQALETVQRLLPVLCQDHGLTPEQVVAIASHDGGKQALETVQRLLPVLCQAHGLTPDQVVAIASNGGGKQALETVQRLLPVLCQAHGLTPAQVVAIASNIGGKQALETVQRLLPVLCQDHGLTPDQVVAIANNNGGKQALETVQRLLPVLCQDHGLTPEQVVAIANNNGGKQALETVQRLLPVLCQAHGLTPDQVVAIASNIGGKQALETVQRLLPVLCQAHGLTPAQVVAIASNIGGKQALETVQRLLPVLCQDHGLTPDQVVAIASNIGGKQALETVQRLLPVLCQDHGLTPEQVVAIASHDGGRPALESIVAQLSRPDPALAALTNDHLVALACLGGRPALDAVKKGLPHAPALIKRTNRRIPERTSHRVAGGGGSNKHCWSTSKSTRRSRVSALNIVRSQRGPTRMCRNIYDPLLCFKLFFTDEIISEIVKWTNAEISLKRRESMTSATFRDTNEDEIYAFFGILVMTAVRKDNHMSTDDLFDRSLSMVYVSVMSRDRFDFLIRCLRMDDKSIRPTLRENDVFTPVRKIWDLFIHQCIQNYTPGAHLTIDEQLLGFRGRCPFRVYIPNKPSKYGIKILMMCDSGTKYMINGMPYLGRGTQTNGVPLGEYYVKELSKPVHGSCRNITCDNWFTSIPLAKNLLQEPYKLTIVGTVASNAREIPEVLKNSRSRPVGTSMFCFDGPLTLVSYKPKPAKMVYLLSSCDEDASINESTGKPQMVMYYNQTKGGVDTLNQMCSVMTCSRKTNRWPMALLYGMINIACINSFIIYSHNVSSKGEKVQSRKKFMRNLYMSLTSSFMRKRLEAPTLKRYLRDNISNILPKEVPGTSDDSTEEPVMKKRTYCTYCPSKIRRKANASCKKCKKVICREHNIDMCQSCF

B1: PAH4 target (dsDNA)
DNA 1: TATGATCCTAATCAGGCTTGTAAATTAACTTTTGAGGCTCTCTTAGCAATCA
DNA 2: TGATTGCTAAGAGAGCCTCAAAAGTTAATTTACAAGCCTGATTAGGATCATA
B2: PAH5 target (dsDNA)
DNA 1: TTCTAGGAAACTTGAACTATGATTTTAAAAAAAGAGAAAGAAGGAAACAAAA
DNA 2: TTTTGTTTCCTTCTTTCTCTTTTTTTAAAATCATAGTTCAAGTTTCCTAGAA

Tests used:
Conditions in all cases: tags: 3xFlag, SV40 NLS
PAH4 Right TAL-PBx = molecular target: T1, PAH4 Right TAL-PBx; test: cell_activity; right only
PAH4 Left TAL-PBx = molecular target: T2, PAH4 Left TAL-PBx; test: cell_activity; left only
PAH5 Right TAL-PBx = molecular target: T3, PAH5 Right TAL-PBx; test: cell_activity; right only
PAH5 Left TAL-PBx = molecular target: T4, PAH5 Left TAL-PBx; test: cell_activity; left only

Row | Binder | activity (PAH4 Right TAL-PBx) [% GFP+] | activity (PAH4 Left TAL-PBx) [% GFP+] | activity (PAH5 Right TAL-PBx) [% GFP+] | activity (PAH5 Left TAL-PBx) [% GFP+]
1 | B1 | 2.9 | 3.6 | – | –
2 | B2 | – | – | 3.9 | 3.6
